Reference: US20060142192A1 (ZymoGenetics, published 2006)

What was measured:
Test in all cases: flow cytometry, biotinylated ligand + streptavidin-PE on stably transfected BHK cells
[1] = biological target: T1, human IL-17B (biotinylated) (human, UniProt Q9UHF5 21-180, biotin label (sites not given))
T1 sequence (looked up): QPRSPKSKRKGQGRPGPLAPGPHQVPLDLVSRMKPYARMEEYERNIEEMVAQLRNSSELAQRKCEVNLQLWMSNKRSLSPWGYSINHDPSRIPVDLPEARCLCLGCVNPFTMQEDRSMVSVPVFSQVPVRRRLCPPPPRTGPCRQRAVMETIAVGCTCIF

[2] = biological target: T2, human IL-17F (biotinylated) (human, UniProt Q96PD4 31-163, biotin label (sites not given))
T2 sequence (looked up): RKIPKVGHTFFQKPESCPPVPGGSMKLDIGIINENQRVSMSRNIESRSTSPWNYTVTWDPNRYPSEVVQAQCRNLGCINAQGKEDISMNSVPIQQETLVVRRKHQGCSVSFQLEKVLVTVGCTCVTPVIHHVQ

[3] = biological target: T3, human IL-17A (biotinylated) (human, UniProt Q16552 24-155, biotin label (sites not given))
T3 sequence (looked up): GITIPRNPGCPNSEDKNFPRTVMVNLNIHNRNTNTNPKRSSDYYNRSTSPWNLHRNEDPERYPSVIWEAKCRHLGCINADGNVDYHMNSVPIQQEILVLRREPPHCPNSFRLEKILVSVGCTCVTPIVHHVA

[4] = biological target: T4, human IL-17D (biotinylated) (human, UniProt Q8TAD2 18-202, limits assumed, biotin label (sites not given))
T4 sequence (looked up): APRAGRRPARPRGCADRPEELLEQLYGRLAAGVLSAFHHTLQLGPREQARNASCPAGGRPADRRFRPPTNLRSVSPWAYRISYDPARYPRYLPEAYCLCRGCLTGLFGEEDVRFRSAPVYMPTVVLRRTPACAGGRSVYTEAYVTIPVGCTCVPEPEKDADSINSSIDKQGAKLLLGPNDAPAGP

binding result [1]: no binding
binding result [2]: no binding
binding result [3]: no binding
binding result [4]: no binding
B1: human ZcytoR21x3 (receptor)
chain: AGIGFRHLPHWNTRCPLASHTVFNGASSTSWCRNPKSLPHSSSIGDTRCQHLLRGSCCLVVTCLRRAITFPSPPQTSPTRDFALKGPNLRIQRHGKVFPDWTHKGPEFSFDLLPEARAIRVTISSGPEVSVRLCHQWALECEELSSPYDVQKIVSGGHTVELPYEFLLPCLCIEASYLQEDTVRRKKCPFQSWPEAYGSDFWKSVHFTDYSQHTQMVMALTLRCPLKLEAALCQRHDWHTLCKDLPNATARESDGWYVLEKVDLHPQLCFKFSFGNSSHVECPHQTGITEARDWPSHIQVSCSPGVPIREPQTSNCLWFVRNEATQQEARGSSPVSLDLIIPFLRPGCCVLVWRSDVQFAWKHLLCPDVSYRHLGLLILALLALLTLLGVVLALTCRRPQSGPGPARPVLLLHAADSEAQRRLVGALAELLRAALGGGRDVIVDLWEGRHVARVGPLPWLWAARTRVAREQGTVLLLWSGADLRPVSGPDPRAAPLLALLHAAPRPLLLLAYFSRLCAKGDIPPPLRALPRYRLLRDLPRLLRALDARPFAEATSWGRLGARQRRQSRLELCSRLEREAARLADLG
notes: also called hcytor21x3
